Data on three molecules can be found in paper PMC10583366, “OsCBL1 modulates rice nitrogen use efficiency via negative regulation of OsNRT2.2 by OsCCA1”.

B1: P7 (dsDNA)
DNA 1: ATATGATGTGTATGGGAATTGGGATGCTGAAAACAAATGCAACTGGACACATATCTGCAACTTGTAAATAACTTTTATTTCTTTTAATGGAAAAAATGTG
DNA 2: CACATTTTTTCCATTAAAAGAAATAAAAGTTATTTACAAGTTGCAGATATGTGTCCAGTTGCATTTGTTTTCAGCATCCCAATTCCCATACACATCATAT
B2: P8 (dsDNA)
DNA 1: CTTCAGGCCGTCATGAAAAAAAACCAGTGCATATCTCATGGCAAGAAGAAGTGCAGGTTGTGAA
DNA 2: TTCACAACCTGCACTTCTTCTTGCCATGAGATATGCACTGGTTTTTTTTCATGACGGCCTGAAG
B3: P6 (dsDNA)
DNA 1: TAAAAAATACCTGCAGGTGCTCTAGTTCAACTGAAGGGCCAGATTTAGCAATATCTGAGTCCTTCAAATAAATTCATCAACTAACAAACTTCAACCGAAG
DNA 2: CTTCGGTTGAAGTTTGTTAGTTGATGAATTTATTTGAAGGACTCAGATATTGCTAAATCTGGCCCTTCAGTTGAACTAGAGCACCTGCAGGTATTTTTTA

For this data set, the target named is OsCCA1 (His-OsCCA1; Nhd1) (Oryza sativa, UniProt A0A0P0XBU0 1-719). As to the kind of experiment: EMSA; 10 mM Tris-HCl pH 7.5, 50 mM KCl, 1 mM DTT, 4 C, 40 min; 4% TBE-PAGE at 4 C, ethidium bromide stain. The conditions noted are these: protein: recombinant; tags: His (pET-28a); ATATCT (motif). For orientation: Mobility shift assays separate free from complexed probe on a gel.
Sequence of OsCCA1 (His-OsCCA1; Nhd1) (A0A0P0XBU0 whole entry): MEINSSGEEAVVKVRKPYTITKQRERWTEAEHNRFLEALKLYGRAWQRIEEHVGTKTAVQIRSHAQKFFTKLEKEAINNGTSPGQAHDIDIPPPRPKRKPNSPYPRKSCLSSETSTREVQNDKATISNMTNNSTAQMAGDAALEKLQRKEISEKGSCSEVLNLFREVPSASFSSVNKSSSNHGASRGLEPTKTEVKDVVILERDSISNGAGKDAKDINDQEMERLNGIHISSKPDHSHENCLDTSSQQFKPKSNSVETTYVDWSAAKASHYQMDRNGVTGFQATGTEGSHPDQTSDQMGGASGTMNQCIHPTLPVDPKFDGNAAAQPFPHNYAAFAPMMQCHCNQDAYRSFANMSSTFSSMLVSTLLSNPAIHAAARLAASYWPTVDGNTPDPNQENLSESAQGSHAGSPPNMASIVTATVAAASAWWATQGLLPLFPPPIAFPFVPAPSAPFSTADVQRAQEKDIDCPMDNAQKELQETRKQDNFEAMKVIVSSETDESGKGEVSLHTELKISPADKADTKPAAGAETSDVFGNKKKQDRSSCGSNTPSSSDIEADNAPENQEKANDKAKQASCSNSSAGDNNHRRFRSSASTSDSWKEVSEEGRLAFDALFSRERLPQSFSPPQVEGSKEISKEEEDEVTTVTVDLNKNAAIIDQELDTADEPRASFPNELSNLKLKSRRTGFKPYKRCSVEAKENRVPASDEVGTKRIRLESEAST
With B1, the binding result is listed as “binds”.

For the molecule B2, the binding result was “binds”. Turning to B3, the binding result is “binds”.
